Substitutions are numbered along the chain they refer to. Names may count otherwise.
T1: human NKG2D expressed on cells (human, UniProt P26718 1-216)
T1 construct: the cell type is named under assay; also called NKG2D on NK92 cells; HEK293T human NKG2D
T1 chain: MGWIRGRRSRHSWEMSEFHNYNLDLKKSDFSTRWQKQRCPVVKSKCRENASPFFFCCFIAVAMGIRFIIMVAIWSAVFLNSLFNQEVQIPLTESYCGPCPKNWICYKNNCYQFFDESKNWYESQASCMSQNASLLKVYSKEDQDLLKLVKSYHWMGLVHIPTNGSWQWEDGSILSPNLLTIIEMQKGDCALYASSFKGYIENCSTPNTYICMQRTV

T2: his avi huNKG2D ECD (human, biotinylated at the avi-tag (in the ELISA))
T2 construct: Human NKG2D ECD with N-terminal H6-avi tags, forms non-covalent dimers; also called recombinant human NKG2D
T2 chain: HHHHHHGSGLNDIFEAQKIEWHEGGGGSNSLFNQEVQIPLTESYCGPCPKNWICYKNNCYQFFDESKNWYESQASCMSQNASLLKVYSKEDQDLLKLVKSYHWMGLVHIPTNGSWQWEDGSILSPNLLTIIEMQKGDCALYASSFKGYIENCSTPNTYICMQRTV

T3: hu N(A2B2)A-avi-His (human)
T3 construct: Construct containing the A2 domain of human CEA, with avi and His tags; also called human CEA (A2 domain)
T3 chain: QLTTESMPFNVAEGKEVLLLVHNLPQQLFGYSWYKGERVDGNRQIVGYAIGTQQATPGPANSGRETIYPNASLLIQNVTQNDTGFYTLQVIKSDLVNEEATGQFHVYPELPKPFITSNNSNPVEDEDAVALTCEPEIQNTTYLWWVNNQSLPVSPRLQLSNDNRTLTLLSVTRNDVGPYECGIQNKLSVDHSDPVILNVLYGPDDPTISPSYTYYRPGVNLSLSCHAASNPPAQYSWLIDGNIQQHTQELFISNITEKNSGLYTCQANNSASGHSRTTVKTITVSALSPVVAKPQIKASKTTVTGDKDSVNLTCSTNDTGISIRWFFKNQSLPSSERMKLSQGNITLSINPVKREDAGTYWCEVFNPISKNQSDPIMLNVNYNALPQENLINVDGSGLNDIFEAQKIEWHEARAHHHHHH

B1: NKG2D×CEA bispecific antibody in M format, P1AE4972 (395 C50S, non-humanized) / huA5B7 (bispecific antibody, V domains shown)
VH 1: QEQLEQSGGGLVTPGGSLKLCCTASGFDFNTFWMTWVRQAPGKGLEWIGSIHGGSGSRDYASWVNGRFTLSRDIDQSTACLQVNSLTAADTAMYYCARPGYRSWSKTFDLWGQGTMVTVSS
VL 1: DIQMTQSPSSLSASVGDRVTITCRASQDISGALNWYQQKPGKAPNLLIYAASSLQSGVPSRFSGSGSGTDYTLTISSLQPEDFATYYCQQANSFPLTFGGGTKVEIK
VH 2: EVQLLESGGGLVQPGGSLRLSCAASGFTFTDYYMNWVRQAPGKGLEWLGFIGNKANAYTTEYSASVKGRFTISRDKSKNTLYLQMNSLRAEDTATYYCTRDRGLRFYFDYWGQGTTVTVSS
VL 2: EIVLTQSPATLSLSPGERATLSCRASSSVTYIHWYQQKPGQAPRSWIYATSNLASGIPARFSGSGSGTDFTLTISSLEPEDFAVYYCQHWSSKPPTFGQGTKLEIK
notes: also called non-humanized comparator
B2: NKG2D×CEA bispecific antibody in M format, P1AE4977 / huA5B7 (bispecific antibody, V domains shown)
VH 1: EVQLLESGGGLVQPGGSLRLSCAASGFDFNTFWMTWVRQAPGKGLEWVGSIHGGSGSRDYADSVKGRFTISRDIDQSTAYLQMNSLRAEDTAVYYCARPGYRSWSKTFDLWGQGTTVTVSS
VL 1: B1 VL 1
VH 2: B1 VH 2
VL 2: B1 VL 2
B3: NKG2D×CEA bispecific antibody in M format, P1AE4973 / huA5B7 (bispecific antibody, V domains shown)
VH 1: B2 VH 1 with I74N, D75S, Q76K, S77N, A79L
VL 1: B1 VL 1
VH 2: B1 VH 2
VL 2: B1 VL 2
B4: NKG2D×CEA bispecific antibody in M format, P1AE4975 / huA5B7 (bispecific antibody, V domains shown)
VH 1: B2 VH 1 with I74N, D75S, Q76K, S77N
VL 1: B1 VL 1
VH 2: B1 VH 2
VL 2: B1 VL 2
B5: NKG2D×CEA bispecific antibody in M format, P1AE4978 / huA5B7 (bispecific antibody, V domains shown)
VH 1: B2 VH 1 with L5V, R72A
VL 1: B1 VL 1
VH 2: B1 VH 2
VL 2: B1 VL 2
B6: NKG2D×CEA bispecific antibody in M format, P1AE4979 / huA5B7 (bispecific antibody, V domains shown)
VH 1: B2 VH 1 with E1Q, V2E
VL 1: B1 VL 1
VH 2: B1 VH 2
VL 2: B1 VL 2
B7: NKG2D×CEA bispecific antibody in M format, P1AE4981 / huA5B7 (bispecific antibody, V domains shown)
VH 1: QEQLQESGPGLVKPSETLSLTCTVSGFDFNTFWMTWIRQPPGKGLEWIGSIHGGSGSRDYNPSLKSRVTISVDIDQNQFSLKLSSVTAADTAVYYCARPGYRSWSKTFDLWGQGTTVTVSS
VL 1: B1 VL 1
VH 2: B1 VH 2
VL 2: B1 VL 2
B8: anti-NKG2D clone 5C5 Fab (Fab, V domains shown)
VH: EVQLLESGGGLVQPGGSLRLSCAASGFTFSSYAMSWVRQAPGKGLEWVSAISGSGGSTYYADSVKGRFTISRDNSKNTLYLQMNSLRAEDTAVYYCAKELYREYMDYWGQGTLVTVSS
VL: SSELTQDPAVSVALGQTVRITCQGDSLRSYYASWYQQKPGQAPVLVIYGKNNRPSGIPDRFSGSSSGNTASLTITGAQAEDEADYYCNSRDSFSIHQNVFGGGTKLTVL
notes: Phage-display Fab purified from E. coli by IMAC (Flag-tagged)
B9: anti-NKG2D clone 13C6 Fab (Fab, V domains shown)
VH: EVQLVQSGAEVKKPGESLKISCKGSGYSFTSYWIGWVRQMPGKGLEWMGIIYPGDSDTRYSPSFQGQVTISADKSISTAYLQWSSLKASDTAMYYCARLYPVGVYFDYWGQGTLVTVSS
VL: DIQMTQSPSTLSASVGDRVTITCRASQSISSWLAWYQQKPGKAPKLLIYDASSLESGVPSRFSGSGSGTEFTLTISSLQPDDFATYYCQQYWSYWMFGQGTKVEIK
notes: as for B8
B10: anti-NKG2D antibody clone 014 (antibody, V domains shown)
VH: EVQLLESGGGLVQPGGSLRLSCAASGFTFSSYAMSWVRQAPGKGLEWVSRISDGGGTIYYTDSVKGRFTIARDNSKNTLYLEMKSLRAEDTAVYYCAKHRLYDSIGAYAMDVWGQGTTVAVSS
VL: DIQMTQSPSSLSASVGDRVTITCRASQSISSYLNWYQQKPGKAPKLLIYDASNLETGVPSRFSGSGSGTDFTLTISSLQPEDFATYYCQQANSFPLTFGPGTKVDIK
notes: From transgenic rabbits

Target: T1, human NKG2D expressed on cells
Experiment: flow cytometry; NK92 cells

Point of comparison: B1, EC50 8.47 nM. Against it:
- B2 — 2.3-fold higher, 19.6 nM
- B3 — 2.1-fold higher, 17.6 nM
- B4 — 1.8-fold higher, 14.9 nM
- B5 — 4.2-fold higher, 35.5 nM
- B6 — 1.5-fold higher, 13.1 nM
- B7 — 8.1-fold higher, 68.2 nM

target: T4, mono huNKG2D ECD Fc kh avi (human, UniProt P0DOX5 223-449 = IgG part, biotinylated at the avi-tag); experiment: SPR ProteOn; antigen on NLC chip, Fab analyte
T4 construct: Monovalent human NKG2D ECD fused to the C-terminus of an avi-tagged human IgG1 Fc knob chain, paired with an empty Fc hole chain
Method: (§1) This incubation step was repeated once with 25 ml of a 5 mM MgSO₄ solution. The supernatants of both incubation steps were pooled, filtered and loaded on an IMAC column (His[…]™, GE Healthcare). Subsequently, the column was washed with 40 ml washing buffer (500 mM NaCl, 20 mM imidazole, 20 mM NaH2PO₄ pH 7.4). After the elution (500 mM NaCl, 500 mM imidazole, 20 mM NaH₂PO₄ pH 7.4) the eluate was re-buffered using PD10 columns (GE Healthcare).
(§2) Immobilization of recombinant antigens (ligand): Antigens were diluted with PBST (10 mM phosphate, 150 mM sodium chloride pH 7.4, 0.005% TWEEN® (polysorbate) 20) to 10 μg/ml, then injected at 30 μl/minute at varying contact times in vertical orientation for immobilization. […] Buffer (PBST) was injected along the sixth channel to provide an “in-line” blank for referencing. Association rate constants (kₒₙ) and dissociation rate constants (koff) were calculated using a simple one-to-one Langmuir binding model in PROTEON™ Manager v3.1 software by simultaneously fitting the association and dissociation sensorgrams. The equilibrium dissociation constant (KD) was calculated as the ratio koff/kₒₙ. Cross-reactivity of clones 5C5 and 13C6 to cynomolgus NKG2D, i.e. binding to di cyNKG2D ECD Fc avi, was assessed on IgG level (see Example 9).

Point of comparison: B9, Kd 79 nM. Against it:
- B8 — 5.3-fold lower, 15 nM

Point of comparison: B8, koff 0.0055 s⁻¹. Against it:
- B9 — 5.7-fold lower, 0.00096 s⁻¹

Point of comparison: B9, kon 12000 M⁻¹ s⁻¹. Against it:
- B8 — 30-fold higher, 360000 M⁻¹ s⁻¹

target: T5, di huNKG2D ECD Fc avi (human, biotinylated at the avi-tag); experiment: SPR ProteOn; antigen on NLC chip, Fab analyte
T5 construct: Dimeric fusion of human NKG2D ECD to the C-terminus of an avi-tagged human IgG1 Fc
Method: as §1, §2

Point of comparison: B8, Kd 22 nM. Against it:
- B9 — 3.4-fold higher, 74 nM

Point of comparison: B8, koff 0.0056 s⁻¹. Against it:
- B9 — 8-fold lower, 0.0007 s⁻¹

Point of comparison: B8, kon 250000 M⁻¹ s⁻¹. Against it:
- B9 — 26-fold lower, 9500 M⁻¹ s⁻¹

target: T6, di muNKG2D ECD Fc avi (murine, biotinylated at the avi-tag); experiment: ELISA; biotinylated antigen on streptavidin plate
T6 construct: Dimeric fusion of murine NKG2D ECD to the C-terminus of an avi-tagged human IgG1 Fc; also called recombinant murine NKG2D
Method: Nunc streptavidin coated plates (MicroCoat, #11974998001) were coated with 25 μl/well biotinylated his avi huNKG2D ECD (SEQ ID NO: 93) at a concentration of 0.5 μg/ml and incubated at room temperature (RT) for 1 hour. After washing with 3×90 μl/well PBST-buffer (10×PBS, Roche #11666789001+0.1% TWEEN® (polysorbate) 20), 25 μl anti-NKG2D antibodies were added in 1:3 dilutions starting at a concentration of 3 μg/ml or alternatively with a 1:30 dilution of the original sample and incubated 1 h at RT. After washing (3×90 μl/well PBST-buffer), 25 μl/well anti hu kappa chain HRP (horseradish peroxidase)-conjugate (Millipore, #AP502P, 1:2000) was added and incubated at RT for 1 h. After washing (3×90 μl/well PBST-buffer) 25 μl/well TMB (3,3′,5,5′-tetramethylbenzidine) substrate (Roche, #11835033001) was added.
Nunc streptavidin coated plates (MicroCoat, #11974998001) were coated with 25 μl/well biotinylated di muNKG2D ECD Fc avi (SEQ ID NO: 98) at a concentration of 1 μg/ml and incubated at room temperature (RT) for 1 hour. The assay was performed as described above for human NKG2D.

T6 sequence (chain, as listed by the source limits assumed): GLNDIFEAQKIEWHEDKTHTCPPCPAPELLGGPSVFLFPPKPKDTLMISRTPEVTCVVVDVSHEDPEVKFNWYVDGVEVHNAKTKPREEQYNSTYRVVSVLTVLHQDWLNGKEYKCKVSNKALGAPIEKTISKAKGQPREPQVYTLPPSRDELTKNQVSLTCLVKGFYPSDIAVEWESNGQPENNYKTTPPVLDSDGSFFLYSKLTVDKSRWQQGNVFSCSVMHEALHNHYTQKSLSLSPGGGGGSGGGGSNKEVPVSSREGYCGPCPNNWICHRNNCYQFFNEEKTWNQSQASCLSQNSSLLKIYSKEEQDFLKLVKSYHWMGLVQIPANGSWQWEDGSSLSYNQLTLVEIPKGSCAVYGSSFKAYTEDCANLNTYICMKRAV

For B10, the OD max was 0.1 OD.

Target: T2, his avi huNKG2D ECD
Experiment: SPR Biacore T200; antigen captured via anti-His, bispecific analyte
Method: (§3) On a CM5 chip, an anti-penta-His capture antibody (Qiagen Penta-His Antibody, BSA-free; #34660) was immobilized by standard amine coupling on flow cells 2 and 3 at approximately 12′000 RU. […] Regeneration at the level of the anti-H6 tag capture antibody was achieved by 2 pulses of 10 mM glycine/HCl pH 2.0 for 60 s. Data were double-referenced against the unimmobilized flow cell 1 and a zero concentration of the analyte. The sensorgrams of the analytes were fitted to a simple 1:1 Langmuir interaction model.

Point of comparison: B6, Kd 17.2 nM. Against it:
- B1 — 1.6-fold lower, 10.5 nM
- B2 — within 1.5-fold, 22.9 nM
- B3 — within 1.5-fold, 14.5 nM
- B4 — within 1.5-fold, 18.6 nM
- B5 — 2.2-fold higher, 37.4 nM
- B7 — 2.7-fold higher, 46.3 nM

Target: T3, hu N(A2B2)A-avi-His
Experiment: as above
Method: as §3

Point of comparison: B6, Kd 5.13 nM. Against it:
- B1 — 1.5-fold lower, 3.34 nM
- B2 — within 1.5-fold, 3.77 nM
- B3 — 2-fold lower, 2.55 nM
- B4 — within 1.5-fold, 3.66 nM
- B5 — within 1.5-fold, 3.84 nM
- B7 — 1.6-fold lower, 3.23 nM

— patent US20240067734A1 (Hoffmann-La Roche, published 2024)
